Target: the molecule itself
Test: SAXS; SEC-coupled SAXS (SWING beamline, SOLEIL); ~25 mg/mL in Tris-HCl 40 mM pH 7.6, 8% glycerol, online Agilent BioSEC-3 300 Å column; Mw from SAXSMoW, volume from DAMMIF; NarGH heterodimers into a trimer

Protein	stoichiometry N	binding result
holoNarGH, Moco-loaded soluble catalytic NarGH complex of nitrate reductase A (complex, E. coli, NarG, nitrate-reducing catalytic subunit of respiratory nitrate reductase A, E. coli; carries Mo-bisPGD and the [4Fe-4S] cluster FS0; Printed residue numbers (Arg108, Glu794) follow the crystal structure 1q16; NarH, electron-transfer subunit of respiratory nitrate reductase A, E. coli; carries four Fe/S clusters (FS1-4); The unit written here is the NarGH heterodimer (~200 kDa), which is trimeric …) chain 1: MSKFLDRFRYFKQKGETFADGHGQLLNTNRDWEDGYRQRWQHDKIVRSTHGVNCTGSCSWKIYVKNGLVTWETQQTDYPRTRPDLPNHEPRGCPRGASYSWYLYSANRLKYPMMRKRLMKMWREAKALHSDPVEAWASIIEDADKAKSFKQARGRGGFVRSSWQEVNELIAASNVYTIKNYGPDRVAGFSPIPAMSMVSYASGARYLSLIGGTCLSFYDWYCDLPPASPQTWGEQTDVPESADWYNSSYIIAWGSNVPQTRTPDAHFFTEVRYKGTKTVAVTPDYAEIAKLCDLWLAPKQGTDAAMALAMGHVMLREFHLDNPSQYFTDYVRRYTDMPMLVMLEERDGYYAAGRMLRAADLVDALGQENNPEWKTVAFNTNGEMVAPNGSIGFRWGEKGKWNLEQRDGKTGEETELQLSLLGSQDEIAEVGFPYFGGDGTEHFNKVELENVLLHKLPVKRLQLADGSTALVTTVYDLTLANYGLERGLNDVNCATSYDDVKAYTPAWAEQITGVSRSQIIRIAREFADNADKTHGRSMIIVGAGLNHWYHLDMNYRGLINMLIFCGCVGQSGGGWAHYVGQEKLRPQTGWQPLAFALDWQRPARHMNSTSYFYNHSSQWRYETVTAEELLSPMADKSRYTGHLIDFNVRAERMGWLPSAPQLGTNPLTIAGEAEKAGMNPVDYTVKSLKEGSIRFAAEQPENGKNHPRNLFIWRSNLLGSSGKGHEFMLKYLLGTEHGIQGKDLGQQGGVKPEEVDWQDNGLEGKLDLVVTLDFRLSSTCLYSDIILPTATWYEKDDMNTSDMHPFIHPLSAAVDPAWEAKSDWEIYKAIAKKFSEVCVGHLGKETDIVTLPIQHDSAAELAQPLDVKDWKKGECDLIPGKTAPHIMVVERDYPATYERFTSIGPLMEKIGNGGKGIAWNTQSEMDLLRKLNYTKAEGPAKGQPMLNTAIDAAEMILTLAPETNGQVAVKAWAALSEFTGRDHTHLALNKEDEKIRFRDIQAQPRKIISSPTWSGLEDEHVSYNAGYTNVHELIPWRTLSGRQQLYQDHQWMRDFGESLLVYRPPIDTRSVKEVIGQKSNGNQEKALNFLTPHQKWGIHSTYSDNLLMLTLGRGGPVVWLSEADAKDLGIADNDWIEVFNSNGALTARAVVSQRVPAGMTMMYHAQERIVNLPGSEITQQRGGIHNSVTRITPKPTHMIGGYAHLAYGFNYYGTVGSNRDEFVVVRKMKNIDWLDGEGNDQVQESVK chain 2: MKIRSQVGMVLNLDKCIGCHTCSVTCKNVWTSREGVEYAWFNNVETKPGQGFPTDWENQEKYKGGWIRKINGKLQPRMGNRAMLLGKIFANPHLPGIDDYYEPFDFDYQNLHTAPEGSKSQPIARPRSLITGERMAKIEKGPNWEDDLGGEFDKLAKDKNFDNIQKAMYSQFENTFMMYLPRLCEHCLNPACVATCPSGAIYKREEDGIVLIDQDKCRGWRMCITGCPYKKIYFNWKSGKSEKCIFCYPRIEAGQPTVCSETCVGRIRYLGVLLYDADAIERAASTENEKDLYQRQLDVFLDPNDPKVIEQAIKDGIPLSVIEAAQQSPVYKMAMEWKLALPLHPEYRTLPMVWYVPPLSPIQSAADAGELGSNGILPDVESLRIPVQYLANLLTAGDTKPVLRALKRMLAMRHYKRAETVDGKVDTRALEEVGLTEAQAQEMYRYLAIANYEDRFVVPSSHRELAREAFPEKNGCGFTFGDGCHGSDTKFNLFNSRRIDAIDVTSKTEPHP	3	–
NarG_(R108A)H_(His6) complex (complex, E. coli, NarG, catalytic subunit of respiratory nitrate reductase A, E. coli, with R108A; NarH, electron-transfer subunit of respiratory nitrate reductase A, E. coli; The unit is the NarGH heterodimer; His6 put on NarH from the plasmid name; also called R108A NarGH; NarGH variant; source: E. coli with pNarG_(R108A)H_(His6)J, purified) chain 1: MSKFLDRFRYFKQKGETFADGHGQLLNTNRDWEDGYRQRWQHDKIVRSTHGVNCTGSCSWKIYVKNGLVTWETQQTDYPRTRPDLPNHEPRGCPRGASYSWYLYSANALKYPMMRKRLMKMWREAKALHSDPVEAWASIIEDADKAKSFKQARGRGGFVRSSWQEVNELIAASNVYTIKNYGPDRVAGFSPIPAMSMVSYASGARYLSLIGGTCLSFYDWYCDLPPASPQTWGEQTDVPESADWYNSSYIIAWGSNVPQTRTPDAHFFTEVRYKGTKTVAVTPDYAEIAKLCDLWLAPKQGTDAAMALAMGHVMLREFHLDNPSQYFTDYVRRYTDMPMLVMLEERDGYYAAGRMLRAADLVDALGQENNPEWKTVAFNTNGEMVAPNGSIGFRWGEKGKWNLEQRDGKTGEETELQLSLLGSQDEIAEVGFPYFGGDGTEHFNKVELENVLLHKLPVKRLQLADGSTALVTTVYDLTLANYGLERGLNDVNCATSYDDVKAYTPAWAEQITGVSRSQIIRIAREFADNADKTHGRSMIIVGAGLNHWYHLDMNYRGLINMLIFCGCVGQSGGGWAHYVGQEKLRPQTGWQPLAFALDWQRPARHMNSTSYFYNHSSQWRYETVTAEELLSPMADKSRYTGHLIDFNVRAERMGWLPSAPQLGTNPLTIAGEAEKAGMNPVDYTVKSLKEGSIRFAAEQPENGKNHPRNLFIWRSNLLGSSGKGHEFMLKYLLGTEHGIQGKDLGQQGGVKPEEVDWQDNGLEGKLDLVVTLDFRLSSTCLYSDIILPTATWYEKDDMNTSDMHPFIHPLSAAVDPAWEAKSDWEIYKAIAKKFSEVCVGHLGKETDIVTLPIQHDSAAELAQPLDVKDWKKGECDLIPGKTAPHIMVVERDYPATYERFTSIGPLMEKIGNGGKGIAWNTQSEMDLLRKLNYTKAEGPAKGQPMLNTAIDAAEMILTLAPETNGQVAVKAWAALSEFTGRDHTHLALNKEDEKIRFRDIQAQPRKIISSPTWSGLEDEHVSYNAGYTNVHELIPWRTLSGRQQLYQDHQWMRDFGESLLVYRPPIDTRSVKEVIGQKSNGNQEKALNFLTPHQKWGIHSTYSDNLLMLTLGRGGPVVWLSEADAKDLGIADNDWIEVFNSNGALTARAVVSQRVPAGMTMMYHAQERIVNLPGSEITQQRGGIHNSVTRITPKPTHMIGGYAHLAYGFNYYGTVGSNRDEFVVVRKMKNIDWLDGEGNDQVQESVK chain 2: MKIRSQVGMVLNLDKCIGCHTCSVTCKNVWTSREGVEYAWFNNVETKPGQGFPTDWENQEKYKGGWIRKINGKLQPRMGNRAMLLGKIFANPHLPGIDDYYEPFDFDYQNLHTAPEGSKSQPIARPRSLITGERMAKIEKGPNWEDDLGGEFDKLAKDKNFDNIQKAMYSQFENTFMMYLPRLCEHCLNPACVATCPSGAIYKREEDGIVLIDQDKCRGWRMCITGCPYKKIYFNWKSGKSEKCIFCYPRIEAGQPTVCSETCVGRIRYLGVLLYDADAIERAASTENEKDLYQRQLDVFLDPNDPKVIEQAIKDGIPLSVIEAAQQSPVYKMAMEWKLALPLHPEYRTLPMVWYVPPLSPIQSAADAGELGSNGILPDVESLRIPVQYLANLLTAGDTKPVLRALKRMLAMRHYKRAETVDGKVDTRALEEVGLTEAQAQEMYRYLAIANYEDRFVVPSSHRELAREAFPEKNGCGFTFGDGCHGSDTKFNLFNSRRIDAIDVTSKTEPHP	–	binds
apoNarGH, cofactor-less NarGH complex produced in absence of NarJ (complex, E. coli, NarG, nitrate-reducing catalytic subunit of respiratory nitrate reductase A, E. coli; here devoid of FS0 and Moco; Printed residue numbers follow the crystal structure 1q16; NarH, electron-transfer subunit of respiratory nitrate reductase A, E. coli; The unit is the NarGH heterodimer; His6 put on NarH from the plasmid name; also called Moco-less His-tagged NarGH complex) chain 1: MSKFLDRFRYFKQKGETFADGHGQLLNTNRDWEDGYRQRWQHDKIVRSTHGVNCTGSCSWKIYVKNGLVTWETQQTDYPRTRPDLPNHEPRGCPRGASYSWYLYSANRLKYPMMRKRLMKMWREAKALHSDPVEAWASIIEDADKAKSFKQARGRGGFVRSSWQEVNELIAASNVYTIKNYGPDRVAGFSPIPAMSMVSYASGARYLSLIGGTCLSFYDWYCDLPPASPQTWGEQTDVPESADWYNSSYIIAWGSNVPQTRTPDAHFFTEVRYKGTKTVAVTPDYAEIAKLCDLWLAPKQGTDAAMALAMGHVMLREFHLDNPSQYFTDYVRRYTDMPMLVMLEERDGYYAAGRMLRAADLVDALGQENNPEWKTVAFNTNGEMVAPNGSIGFRWGEKGKWNLEQRDGKTGEETELQLSLLGSQDEIAEVGFPYFGGDGTEHFNKVELENVLLHKLPVKRLQLADGSTALVTTVYDLTLANYGLERGLNDVNCATSYDDVKAYTPAWAEQITGVSRSQIIRIAREFADNADKTHGRSMIIVGAGLNHWYHLDMNYRGLINMLIFCGCVGQSGGGWAHYVGQEKLRPQTGWQPLAFALDWQRPARHMNSTSYFYNHSSQWRYETVTAEELLSPMADKSRYTGHLIDFNVRAERMGWLPSAPQLGTNPLTIAGEAEKAGMNPVDYTVKSLKEGSIRFAAEQPENGKNHPRNLFIWRSNLLGSSGKGHEFMLKYLLGTEHGIQGKDLGQQGGVKPEEVDWQDNGLEGKLDLVVTLDFRLSSTCLYSDIILPTATWYEKDDMNTSDMHPFIHPLSAAVDPAWEAKSDWEIYKAIAKKFSEVCVGHLGKETDIVTLPIQHDSAAELAQPLDVKDWKKGECDLIPGKTAPHIMVVERDYPATYERFTSIGPLMEKIGNGGKGIAWNTQSEMDLLRKLNYTKAEGPAKGQPMLNTAIDAAEMILTLAPETNGQVAVKAWAALSEFTGRDHTHLALNKEDEKIRFRDIQAQPRKIISSPTWSGLEDEHVSYNAGYTNVHELIPWRTLSGRQQLYQDHQWMRDFGESLLVYRPPIDTRSVKEVIGQKSNGNQEKALNFLTPHQKWGIHSTYSDNLLMLTLGRGGPVVWLSEADAKDLGIADNDWIEVFNSNGALTARAVVSQRVPAGMTMMYHAQERIVNLPGSEITQQRGGIHNSVTRITPKPTHMIGGYAHLAYGFNYYGTVGSNRDEFVVVRKMKNIDWLDGEGNDQVQESVK chain 2: MKIRSQVGMVLNLDKCIGCHTCSVTCKNVWTSREGVEYAWFNNVETKPGQGFPTDWENQEKYKGGWIRKINGKLQPRMGNRAMLLGKIFANPHLPGIDDYYEPFDFDYQNLHTAPEGSKSQPIARPRSLITGERMAKIEKGPNWEDDLGGEFDKLAKDKNFDNIQKAMYSQFENTFMMYLPRLCEHCLNPACVATCPSGAIYKREEDGIVLIDQDKCRGWRMCITGCPYKKIYFNWKSGKSEKCIFCYPRIEAGQPTVCSETCVGRIRYLGVLLYDADAIERAASTENEKDLYQRQLDVFLDPNDPKVIEQAIKDGIPLSVIEAAQQSPVYKMAMEWKLALPLHPEYRTLPMVWYVPPLSPIQSAADAGELGSNGILPDVESLRIPVQYLANLLTAGDTKPVLRALKRMLAMRHYKRAETVDGKVDTRALEEVGLTEAQAQEMYRYLAIANYEDRFVVPSSHRELAREAFPEKNGCGFTFGDGCHGSDTKFNLFNSRRIDAIDVTSKTEPHP	3	–

Source: publication PMC5123574, “Redox cofactors insertion in prokaryotic molybdoenzymes occurs via a conserved folding mechanism” (Scientific Reports, 2016)
